Source: patent US20160311934A1, “HYDROXYALKYL STARCH DERIVATIVES AS REACTANTS FOR COUPLING TO THIOL GROUPS” (FRESENIUS KABI DEUTSCHLAND GMBH, priority 2013, published 2016)
Positions count from the first letter of the chain named. Numbers in names are those of the source. Values belong to the molecule of their own block, whether it stands above or below them.

Key:
[1] = molecular target: T1, Interleukin 1 receptor type I (Homo sapiens, UniProt P14778); assay: SPR binding affinity on a BIAcore system; settings: immobilized receptor on CM3 chip, 1:1 binding stoichiometry
T1 construct: purchased R&D Systems
T1 sequence (P14778 18-569): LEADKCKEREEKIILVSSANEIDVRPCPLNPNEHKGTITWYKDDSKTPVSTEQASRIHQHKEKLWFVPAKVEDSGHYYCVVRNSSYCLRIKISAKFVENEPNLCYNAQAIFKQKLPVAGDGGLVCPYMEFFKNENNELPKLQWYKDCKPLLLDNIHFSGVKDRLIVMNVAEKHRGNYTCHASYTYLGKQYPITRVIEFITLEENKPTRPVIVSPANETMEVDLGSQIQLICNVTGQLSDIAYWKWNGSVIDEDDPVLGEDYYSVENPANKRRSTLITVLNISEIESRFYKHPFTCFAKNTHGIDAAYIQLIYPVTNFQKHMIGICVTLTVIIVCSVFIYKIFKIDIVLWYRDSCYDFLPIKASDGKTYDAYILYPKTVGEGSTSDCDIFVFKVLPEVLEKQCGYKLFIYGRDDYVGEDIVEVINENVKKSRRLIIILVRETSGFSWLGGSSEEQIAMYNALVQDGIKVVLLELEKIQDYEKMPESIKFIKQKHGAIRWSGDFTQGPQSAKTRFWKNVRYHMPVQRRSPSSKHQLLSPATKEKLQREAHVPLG
Description: Conjugates of L12-HES with IL1RA were tested for binding affinity to its natural binding partner using SPR on a BIAcore system. Interleukin 1 receptor type I (R&D Systems) was immobilized on the chip surface and the kinetic binding parameters were determined for the conjugate in comparison to the unmodified protein (chip: CM3, immobilization: 950 RU, flow rate 30 μl/min, association 180 s, dissociation 900 s, regeneration: 6 s with 5 mM glycine buffer, pH 2.0). The curves were analyzed by assuming a 1:1 binding stoichiometry.

peptidyl prolyl bonds = assay: Prolyl isomerase activity assay; assay type: biochemical
Description: Prolylisomerases like SlyD catalyze the trans to cis isomerization of peptidyl prolyl bonds. The prolyl isomerase activities of SlyD and the L12-HES-SlyD conjugate were measured by a prolyl isomerase activity assay according to Zoldak et al. (2009, Biochemistry, 48, 10423-10436). The rate constant of the cis to trans isomerization of the prolyl bond was determined using Origin 8.1. […] The catalytic activity of unmodified SlyD is 5.6·10^6 M^−1s^−1 and the activity of the L12-HES-SlyD conjugate is 6.0·10^6 M^−1s^−1 (107% of the activity of unconjugated SlyD). The higher activity of the conjugate compared to unmodified SlyD is within the error of the assay.

[2] = Stability tests of HES-protein conjugates at different pH, 40° C., 20 days; assay type: physicochemical; settings: protein conjugate 1 mg/ml
Description: For stability tests at pH 4.0, 5.5, 7.0 and 8.0, the conjugates were diluted into final buffer conditions of 20 mM acetate (pH 4.0 and 5.5) or 10 mM phosphate (pH 7.0 and 8.0), 0.5 mM ETDA, 154 mM NaCl to a final concentration of 1 mg/ml. The conjugates were stored at 40° C. for 20 days and analyzed by RP-HPLC (example for Ubi is shown in FIG. 3), SEC (as described in example C1) or SDS-PAGE (as described in example C1).

B1: unmodified SlyD: SlyD D101C, sensitive to lysis protein D, a prolylisomerase, unconjugated (protein, UniProt P0A9K9 1-196, looked up, variant D101C)
FKBP-type peptidyl-prolyl …: MKVAKDLVVSLAYQVRTEDGVLVDESPVSAPLDYLHGHGSLISGLETALEGHEVGDKFDVAVGANDAYGQYDENLVQRVPKDVFMGVDELQVGMRFLAETCQGPVPVEITAVEDDHVVVDGNHMLAGQNLKFNVEVVAIREATEEELAHGHVHGAHDHHHDHDHDGCCGGHGHDHGHEHGGEGCCGGKGNGGCGCH
- catalytic activity (prolyl isomerization) (peptidyl prolyl bonds): 5.6e+06 M⁻¹ s⁻¹

B2: L12 X12 SlyD (conjugate, UniProt P0A9K9 1-196, looked up)
FKBP-type peptidyl-prolyl …: B1 FKBP-type peptidyl-prolyl … with C101D
modifications: HES X12 via linker L12
- conjugate degradation after 20 days (%) pH 7.0 ([2]; 10 mM phosphate pH 7.0, 40° C.): 3.4%
- conjugate degradation after 20 days (%) pH 8.0 ([2]; 10 mM phosphate pH 8.0, 40° C.): 9.0%
- conjugate degradation after 20 days (%) pH 5.5 ([2]; 20 mM acetate pH 5.5, 40° C.): 1.4%
- catalytic activity (prolyl isomerization) (peptidyl prolyl bonds): 6e+06 M⁻¹ s⁻¹
- % of the activity of unconjugated SlyD (peptidyl prolyl bonds; relative to unconjugated SlyD): 107%

Further lines, results first:

- association rate ka [1]: 263000 M⁻¹ s⁻¹
Molecule: IL1RA that is conjugated to HES via N-terminal coupling: IL1RA that is conjugated to HES via N-terminal coupling

- association rate ka [1]: 588000 M⁻¹ s⁻¹
Molecule: unmodified IL1RA: interleukin-1 receptor antagonist (Kineret®), unconjugated
